The values that follow come from publication PMC2586830 (Molecular Microbiology, 2008).

Series [1] has as its target PhoB (Escherichia coli) (UniProt P0AFJ5). The experiment in a line: analytical ultracentrifugation. Conditions: cited from earlier work.
For series [2] the target is unchanged. The note with it: cited from earlier work.
The series “FRET or BRET” deals with the molecule itself. Nature of the series: FRET or BRET. A general note: Bioluminescence resonance energy transfer reports proximity on the nanometre scale.

In general, Kd refers to a measure of binding affinity in units of concentration.

Where two headings read alike, the source gives them in different places.

Sequence of PhoB (Escherichia coli) (P0AFJ5 whole entry): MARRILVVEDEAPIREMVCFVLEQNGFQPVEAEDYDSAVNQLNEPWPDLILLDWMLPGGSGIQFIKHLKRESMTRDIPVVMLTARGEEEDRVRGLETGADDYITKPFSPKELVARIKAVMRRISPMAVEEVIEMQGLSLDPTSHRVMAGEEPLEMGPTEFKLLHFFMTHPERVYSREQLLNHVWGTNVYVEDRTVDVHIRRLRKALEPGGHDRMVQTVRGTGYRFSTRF

In the case of PhoB (from UniProt P0AFJ5), the Kd with PhoB (Escherichia coli) [1] was 5.1 µM; with PhoB (Escherichia coli) [2], 378 µM.

B1: CFP–ArcA / YFP–ArcA, phosphorylated (natural protein)
chain: MQTPHILIVEDELVTRNTLKSIFEAEGYDVFEATDGAEMHQILSEYDINLVIMDINLPGKNGLLLARELREQANVALMFLTGRDNEVDKILGLEIGADDYITKPFNPRELTIRARNLLSRTMNLGTVSEERRSVESYKFNGWELDINSRSLIGPDGEQYKLPRSEFRAMLHFCENPGKIQSRAELLKKMTGRELKPHDRTVDVTIRRIRKHFESTPDTPEIIATIHGEGYRFCGDLED
modifications: phosphorylated in vitro with phosphoramidate and MgSO4 (conserved aspartate of the receiver domain; residue number not given)
For B1, in “FRET or BRET”, the binding result is given as “binds”.

B2: CFP–BaeR / YFP–BaeR, phosphorylated (natural protein)
chain: MTELPIDENTPRILIVEDEPKLGQLLIDYLRAASYAPTLISHGDQVLPYVRQTPPDLILLDLMLPGTDGLTLCREIRRFSDIPIVMVTAKIEEIDRLLGLEIGADDYICKPYSPREVVARVKTILRRCKPQRELQQQDAESPLIIDEGRFQASWRGKMLDLTPAEFRLLKTLSHEPGKVFSREQLLNHLYDDYRVVTDRTIDSHIKNLRRKLESLDAEQSFIRAVYGVGYRWEADACRIV
modifications: phosphorylated in vitro with phosphoramidate and MgSO4 (conserved aspartate of the receiver domain; residue number not given)
Consider B2, for which the binding result in “FRET or BRET” is “binds”.

B3: CFP–KdpE / YFP–KdpE, phosphorylated (natural protein)
chain: MTNVLIVEDEQAIRRFLRTALEGDGMRVFEAETLQRGLLEAATRKPDLIILDLGLPDGDGIEFIRDLRQWSAVPVIVLSARSEESDKIAALDAGADDYLSKPFGIGELQARLRVALRRHSATTAPDPLVKFSDVTVDLAARVIHRGEEEVHLTPIEFRLLAVLLNNAGKVLTQRQLLNQVWGPNAVEHSHYLRIYMGHLRQKLEQDPARPRHFITETGIGYRFML
modifications: phosphorylated in vitro with phosphoramidate and MgSO4 (conserved aspartate of the receiver domain; residue number not given)
As to B3, the binding result in “FRET or BRET” is recorded as “binds”.

B4: CFP–CreB / YFP–CreB, phosphorylated (natural protein)
chain: MQRETVWLVEDEQGIADTLVYMLQQEGFAVEVFERGLPVLDKARKQVPDVMILDVGLPDISGFELCRQLLALHPALPVLFLTARSEEVDRLLGLEIGADDYVAKPFSPREVCARVRTLLRRVKKFSTPSPVIRIGHFELNEPAAQISWFDTPLALTRYEFLLLKTLLKSPGRVWSRQQLMDSVWEDAQDTYDRTVDTHIKTLRAKLRAINPDLSPINTHRGMGYSLRGL
modifications: phosphorylated in vitro with phosphoramidate and MgSO4 (conserved aspartate of the receiver domain; residue number not given)
Regarding B4, the binding result in the series “FRET or BRET” was “binds”.

B5: CFP–TorR / YFP–TorR, phosphorylated (natural protein)
chain: MPHHIVIVEDEPVTQARLQSYFTQEGYTVSVTASGAGLREIMQNQSVDLILLDINLPDENGLMLTRALRERSTVGIILVTGRSDRIDRIVGLEMGADDYVTKPLELRELVVRVKNLLWRIDLARQAQPHTQDNCYRFAGYCLNVSRHTLERDGEPIKLTRAEYEMLVAFVTNPGEILSRERLLRMLSARRVENPDLRTVDVLIRRLRHKLSADLLVTQHGEGYFLAADVC
modifications: phosphorylated in vitro with phosphoramidate and MgSO4 (conserved aspartate of the receiver domain; residue number not given)
In the case of B5, the binding result in “FRET or BRET” is “binds”.

B6: CFP–CusR / YFP–CusR, phosphorylated (natural protein)
chain: MKLLIVEDEKKTGEYLTKGLTEAGFVVDLADNGLNGYHLAMTGDYDLIILDIMLPDVNGWDIVRMLRSANKGMPILLLTALGTIEHRVKGLELGADDYLVKPFAFAELLARVRTLLRRGAAVIIESQFQVADLMVDLVSRKVTRSGTRITLTSKEFTLLEFFLRHQGEVLPRSLIASQVWDMNFDSDTNAIDVAVKRLRGKIDNDFEPKLIQTVRGVGYMLEVPDGQ
modifications: phosphorylated in vitro with phosphoramidate and MgSO4 (conserved aspartate of the receiver domain; residue number not given)
As to B6, in “FRET or BRET”, the binding result is reported as “binds”.

B7: CFP–CpxR / YFP–CpxR, phosphorylated (natural protein)
chain: MNKILLVDDDRELTSLLKELLEMEGFNVIVAHDGEQALDLLDDSIDLLLLDVMMPKKNGIDTLKALRQTHQTPVIMLTARGSELDRVLGLELGADDYLPKPFNDRELVARIRAILRRSHWSEQQQNNDNGSPTLEVDALVLNPGRQEASFDGQTLELTGTEFTLLYLLAQHLGQVVSREHLSQEVLGKRLTPFDRAIDMHISNLRRKLPDRKDGHPWFKTLRGRGYLMVSAS
modifications: phosphorylated in vitro with phosphoramidate and MgSO4 (conserved aspartate of the receiver domain; residue number not given)
On to B7, for which, in “FRET or BRET”, the binding result is “binds”.

B8: CFP–QseB / YFP–QseB, phosphorylated (natural protein)
chain: MRILLIEDDMLIGDGIKTGLSKMGFSVDWFTQGRQGKEALYSAPYDAVILDLTLPGMDGRDILREWREKGQREPVLILTARDALAERVEGLRLGADDYLCKPFALIEVAARLEALMRRTNGQASNELRHGNVMLDPGKRIATLAGEPLTLKPKEFALLELLMRNAGRVLSRKLIEEKLYTWDEEVTSNAVEVHVHHLRRKLGSDFIRTVHGIGYTLGEK
modifications: phosphorylated in vitro with phosphoramidate and MgSO4 (conserved aspartate of the receiver domain; residue number not given)
B8: in the series “FRET or BRET”, the binding result is given as “binds”.

B9: CFP–PhoP / YFP–PhoP, phosphorylated (natural protein)
chain: MRVLVVEDNALLRHHLKVQIQDAGHQVDDAEDAKEADYYLNEHIPDIAIVDLGLPDEDGLSLIRRWRSNDVSLPILVLTARESWQDKVEVLSAGADDYVTKPFHIEEVMARMQALMRRNSGLASQVISLPPFQVDLSRRELSINDEVIKLTAFEYTIMETLIRNNGKVVSKDSLMLQLYPDAELRESHTIDVLMGRLRKKIQAQYPQEVITTVRGQGYLFELR
modifications: phosphorylated in vitro with phosphoramidate and MgSO4 (conserved aspartate of the receiver domain; residue number not given)
As to B9, the binding result in the series “FRET or BRET” is given as “binds”.
